Bridges are numbered along the chain shown (N, C = ends). Where no end group is shown, it is not given here.
T1: alpha subunit of the human FcεRI receptor expressed on cells (human, UniProt P12319 26-257)
T1 construct: whole, on cells; on rat basophil RBL-48 cells in the histamine release assay; also called CHO FcεRI+ cells; cell surface expressed FcεRI
T1 sequence (looked up): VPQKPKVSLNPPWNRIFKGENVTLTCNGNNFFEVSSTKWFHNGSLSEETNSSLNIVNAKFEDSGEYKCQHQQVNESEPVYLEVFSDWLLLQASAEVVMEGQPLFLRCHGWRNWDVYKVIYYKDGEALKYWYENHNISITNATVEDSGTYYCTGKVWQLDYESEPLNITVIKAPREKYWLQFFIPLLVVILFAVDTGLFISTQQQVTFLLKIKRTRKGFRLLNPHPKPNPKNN

T2: extracellular domain of the alpha subunit of the human FcεRI (aa 1-176), produced in baculovirus infected … (human, UniProt P12319 26-201, N-linked carbohydrate (NAG on Asn21 seen in the crystal); derivatised with PDEA for thiol coupling to the chip in the biosensor assay)
T2 construct: range 1-176; Residues 1-176 are probably counted without the signal peptide; also called FcεRIα; soluble FcεRI
T2 sequence (looked up): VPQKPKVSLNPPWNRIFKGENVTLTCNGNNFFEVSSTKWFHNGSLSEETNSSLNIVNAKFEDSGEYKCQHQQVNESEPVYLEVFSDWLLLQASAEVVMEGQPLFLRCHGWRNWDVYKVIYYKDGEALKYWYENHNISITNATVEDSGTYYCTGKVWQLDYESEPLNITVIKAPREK

B1: IGE073 (peptide)
peptide: NLPRCTEGPWGAVCM
modifications: disulfide 5-14 (inferred)
notes: also called W12A
B2: IGE079 (peptide)
peptide: NLPRCTEAPWGWVCM
modifications: disulfide 5-14 (inferred)
notes: also called G8A
B3: IGE074 (peptide)
peptide: NLPRCTEGPWAWVCM
modifications: disulfide 5-14 (inferred)
B4: IGE068 (peptide)
peptide: LPRCTEGPWGWVCM-NH2
modifications: disulfide 4-13 (inferred)
B5: IGE082 (peptide)
peptide: Ac-NLPRCTEGPWGWVC
modifications: disulfide 5-14 (inferred)
B6: IGE069 (peptide)
peptide: PRCTEGPWGWVCM-NH2
modifications: disulfide 3-12 (inferred)
B7: IGE123 (peptide)
peptide: VKCPSLCYVGGKALCPDVCYV-NH2
modifications: disulfide (positions not given here); also: oxidized, disulfide-bonded Cys, pairing not given here
B8: IGE124 (peptide)
peptide: VPCPELCYVGGKALCPDVCYV-NH2
modifications: disulfide (positions not given here); also: oxidized, disulfide-bonded Cys, pairing not given here
B9: IGE130 (peptide)
peptide: ALCPDVCYVGGKVQCPHFCYV-NH2
modifications: disulfide 7-15, 3-19; N-terminus assumed
SMILES: CC(C)C[C@H](NC(=O)[C@H](C)N)C(=O)N[C@H]1CSSC[C@@H](C(=O)N[C@@H](Cc2ccc(O)cc2)C(=O)N[C@H](C(N)=O)C(C)C)NC(=O)[C@H](Cc2ccccc2)NC(=O)[C@H](Cc2c[nH]cn2)NC(=O)[C@@H]2CCCN2C(=O)[C@@H]2CSSC[C@H](NC(=O)[C@H](C(C)C)NC(=O)[C@H](CC(=O)O)NC(=O)[C@@H]3CCCN3C1=O)C(=O)N[C@@H](Cc1ccc(O)cc1)C(=O)N[C@@H](C(C)C)C(=O)NCC(=O)NCC(=O)N[C@@H](CCCCN)C(=O)N[C@@H](C(C)C)C(=O)N[C@@H](CCC(N)=O)C(=O)N2
B10: IGE122 (peptide)
peptide: VQCPHFCYVGGKALCPDVCYV-NH2
modifications: disulfide (positions not given here); also: oxidized, disulfide-bonded Cys, pairing not given here
B11: IGE131 (peptide)
peptide: VQCPHFCYVGGKVQCPHFCYV-NH2
modifications: disulfide (positions not given here); not fully specified (bridges); also: oxidized, disulfide-bonded Cys, pairing not given here
B12: IGE120 (peptide)
peptide: IVCPRLCYVGGKALCPDVCYV-NH2
modifications: disulfide (positions not given here); also: oxidized, disulfide-bonded Cys, pairing not given here
B13: IGE127 (peptide)
peptide: IVCARLCYVGGKALCPDVCYV-NH2
modifications: disulfide (positions not given here); not fully specified (bridges); also: oxidized, disulfide-bonded Cys, pairing not given here
notes: P4A variant of IGE120
B14: IGE126 (peptide)
peptide: VTCPRWCYVGGKALCPDVCYV-NH2
modifications: disulfide (positions not given here); also: oxidized, disulfide-bonded Cys, pairing not given here
B15: IGE083 (peptide)
peptide: ALCPAVCYVGGKALCPDVCYV-NH2
modifications: disulfide 7-15, 3-19; N-terminus assumed
SMILES: CC(C)C[C@H](NC(=O)[C@H](C)N)C(=O)N[C@H]1CSSC[C@@H](C(=O)N[C@@H](Cc2ccc(O)cc2)C(=O)N[C@H](C(N)=O)C(C)C)NC(=O)[C@H](C(C)C)NC(=O)[C@H](CC(=O)O)NC(=O)[C@@H]2CCCN2C(=O)[C@@H]2CSSC[C@H](NC(=O)[C@H](C(C)C)NC(=O)[C@H](C)NC(=O)[C@@H]3CCCN3C1=O)C(=O)N[C@@H](Cc1ccc(O)cc1)C(=O)N[C@@H](C(C)C)C(=O)NCC(=O)NCC(=O)N[C@@H](CCCCN)C(=O)N[C@@H](C)C(=O)N[C@@H](CC(C)C)C(=O)N2
notes: single chain dimer form of IGE089 with Ala17Asp
B16: IGE128 (peptide)
peptide: KSCPLWCYVGGKALCPDVCYV-NH2
modifications: disulfide (positions not given here); not fully specified (bridges); also: oxidized, disulfide-bonded Cys, pairing not given here
B17: IGE089 (peptide)
peptide: ALCPAVCYV-NH2
modifications: also: antiparallel disulfide-linked homodimer, interchain C3-C7' and C7-C3'
notes: also called IGE037 dimer
B18: IGE121 (peptide)
peptide: VVCPNMCYVGGKALCPDVCYV-NH2
modifications: disulfide (positions not given here); also: oxidized, disulfide-bonded Cys, pairing not given here
B19: IGE132 (peptide)
peptide: VQCPHFCYVGGHALCPDVCYVGR-OH
modifications: cysteine pairing not given here
notes: produced biosynthetically as a fusion to the Z-domain of protein A and cleaved off with trypsin; free C-terminus
B20: IGE119 (peptide)
peptide: NGCPGWCYVGGKALCPDVCYV-NH2
modifications: disulfide 7-15, 3-19; N-terminus assumed
SMILES: CC(C)C[C@@H]1NC(=O)[C@H](C)NC(=O)[C@H](CCCCN)NC(=O)CNC(=O)CNC(=O)[C@H](C(C)C)NC(=O)[C@H](Cc2ccc(O)cc2)NC(=O)[C@@H]2CSSC[C@H](NC1=O)C(=O)N1CCC[C@H]1C(=O)N[C@@H](CC(=O)O)C(=O)N[C@@H](C(C)C)C(=O)N[C@H](C(=O)N[C@@H](Cc1ccc(O)cc1)C(=O)N[C@H](C(N)=O)C(C)C)CSSC[C@H](NC(=O)CNC(=O)[C@@H](N)CC(N)=O)C(=O)N1CCC[C@H]1C(=O)NCC(=O)N[C@@H](Cc1c[nH]c3ccccc13)C(=O)N2

These binders were tested against T1, alpha subunit of the human FcεRI … (assay: inhibition of 125I-IgE binding to CHO cells expressing human FcεRI alpha).
Experimental: To determine the ability of peptides to inhibit IgE binding to FcεRI, a cell-based binding assay was used with radiolabeled IgE. Chinese hamster ovary cells expressing the alpha subunit of the human FcεRI receptor were cultured overnight in Falcon 96 well microtiter plates at a concentration of 5 ×10^4 cells per well. The following day the cells were rinsed three times with PBS and then once with F12/DMEM. Peptide stocks were reconstituted in 100 mM Hepes buffered water, pH 7.2, at a concentration of 5 mg/mL. Working concentrations of the peptide were diluted in assay buffer (see below). 75 uL of a desired concentration of peptide was added to the top row of a separate 96 well microtiter plate and serially diluted 1:3 in 50 uL of the assay buffer (F12/DMEM, 1% BSA, 0.05% NaN_3 and 0.025 mM Hepes pH 7.2). Starting concentrations ranged from 50–500 uM. Next, 50 uL of the diluted peptide was transferred to the 96 microtiter well plate containing a monolayer of CHO FcεRI+ cells. […] Cells were
Alanine substitutions in IGE063 (SEQ ID NO:49) were used to assess sidechain contributions. The P9A (IGE070, SEQ ID NO:52) substitution had the largest impact with a >500× reduction in binding. […] Clearly the alanine substitutions at G8, P9, W10, G11 and W12 all had major impacts on binding FcεRI.

fold reduction in binding (against IGE063)	fold reduction in inhibition (against IGE063)	Binder
65 fold	–	B1
256 fold	–	B2
30 fold	–	B3
–	3 fold	B4
> 400 fold	–	B5
–	34 fold	B6

The binders below were run against T2, extracellular domain of the alpha … (assay: SPR biosensor (BIAcore), peptide over immobilized FcεRIα, steady-state saturation curve, 4-parameter fit).
Experimental: *peptide is a dimer. SEQ ID NO: describes each monomer of the dimer. "ava" = amino-valeric acid Several peptides were also tested in a direct-binding assay using a surface plasmon resonance biosensor (Lofas & Johnsson, *J. Chem. Soc. Commun.* 21, 1526–1528 (1990)). FcεRIα, produced in baculovirus infected insect cells, was immobilized by the surface thiol method (BIAcore Methods Manual Supplement 5a, BIAcore, Inc., Piscataway, N.J.). Briefly, receptor was reacted with 2-(2-pyridinyldithio)ethaneamine hydrochloride (PDEA; Natake & Swaisgood, *J. Biochem.* 74, 77–86 (1973)), desalted into 10 mM sodium acetate (pH 4.8) and stored in aliquots at −80° C. Thawed PDEA-receptor was injected over carboxymethyl-dextran (B1 or CM5, BIAcore, Inc.) biosensor chips preactivated with N-ethyl-N'-(3-dimethylaminopropyl)-carbodiimide hydrochloride (EDC) and N-hydroxysuccinimide (NHS), cystamine, and DTT. Following coupling, reactive groups on the chip were quenched with PDEA and ethanolamine. Serial dilutions of peptide in running buffer (phosphate-buffered saline containing 0.05% Tween-20, 0.01% sodium azide) were injected over the immobilized receptor, and the net amount of peptide bound at steady-state was measured as the net change in response (RU) at a point just prior to termination of peptide injection, compared to a running-buffer baseline. Binding affinities (Table 10) are reported as the midpoint ($EC50$) of a 4-parameter fit to the peptide saturation curve. In the case of IGE134 (SEQ ID NOS:), the value shown indicates the Kd calculated from the rate constants, $kon$ and $koff$. The results of binding assays (Table 8) correlate well with those of inhibition assays (Table 7).

EC50	Binder
180 nM	B7
890 nM	B8
250 nM	B9
150 nM	B10
2300 nM	B11
260 nM	B12
13000 nM	B13
380 nM	B14
1100 nM	B15
240 nM	B16
64000 nM	B17
340 nM	B18
680 nM	B19
1400 nM	B20
